Key:
[1] = steady-state immunoblot, HEK293; conditions: glycan lost
[2] = CHX chase, immunoblot, percent remaining; conditions: glycan lost; control: WT-ABCG8

B1: ABCG5: N584Q (protein)
parent chain: MGDLSSLTPGGSMGLQVNRGSQSSLEGAPATAPEPHSLGILHASYSVSHRVRPWWDITSCRQQWTRQILKDVSLYVESGQIMCILGSSGSGKTTLLDAMSGRLGRAGTFLGEVYVNGRALRREQFQDCFSYVLQSDTLLSSLTVRETLHYTALLAIRRGNPGSFQKKVEAVMAELSLSHVADRLIGNYSLGGISTGERRRVSIAAQLLQDPKVMLFDEPTTGLDCMTANQIVVLLVELARRNRIVVLTIHQPRSELFQLFDKIAILSFGELIFCGTPAEMLDFFNDCGYPCPEHSNPFDFYMDLTSVDTQSKEREIETSKRVQMIESAYKKSAICHKTLKNIERMKHLKTLPMVPFKTKDSPGVFSKLGVLLRRVTRNLVRNKLAVITRLLQNLIMGLFLLFFVLRVRSNVLKGAIQDRVGLLYQFVGATPYTGMLNAVNLFPVLRAVSDQESQDGLYQKWQMMLAYALHVLPFSVVATMIFSSVCYWTLGLHPEVARFGYFSAALLAPHLIGEFLTLVLLGIVQNPNIVNSVVALLSIAGVLVGSGFLRNIQEMPIPFKIISYFTFQKYCSEILVVNEFYGLNFTCGSSNVSVTTNPMCAFTQGIQFIEKTCPGATSRFTMNFLILYSFIPALVILGIVVFKIRDHLISR
expression_or_secretion ([1]; control: WT-ABCG5): decreases

B2: ABCG5: N584Q/N591Q (protein)
parent chain: MGDLSSLTPGGSMGLQVNRGSQSSLEGAPATAPEPHSLGILHASYSVSHRVRPWWDITSCRQQWTRQILKDVSLYVESGQIMCILGSSGSGKTTLLDAMSGRLGRAGTFLGEVYVNGRALRREQFQDCFSYVLQSDTLLSSLTVRETLHYTALLAIRRGNPGSFQKKVEAVMAELSLSHVADRLIGNYSLGGISTGERRRVSIAAQLLQDPKVMLFDEPTTGLDCMTANQIVVLLVELARRNRIVVLTIHQPRSELFQLFDKIAILSFGELIFCGTPAEMLDFFNDCGYPCPEHSNPFDFYMDLTSVDTQSKEREIETSKRVQMIESAYKKSAICHKTLKNIERMKHLKTLPMVPFKTKDSPGVFSKLGVLLRRVTRNLVRNKLAVITRLLQNLIMGLFLLFFVLRVRSNVLKGAIQDRVGLLYQFVGATPYTGMLNAVNLFPVLRAVSDQESQDGLYQKWQMMLAYALHVLPFSVVATMIFSSVCYWTLGLHPEVARFGYFSAALLAPHLIGEFLTLVLLGIVQNPNIVNSVVALLSIAGVLVGSGFLRNIQEMPIPFKIISYFTFQKYCSEILVVNEFYGLNFTCGSSNVSVTTNPMCAFTQGIQFIEKTCPGATSRFTMNFLILYSFIPALVILGIVVFKIRDHLISR
expression_or_secretion ([1]; control: WT-ABCG5): decreases

B3: ABCG5: N591Q (protein)
parent chain: MGDLSSLTPGGSMGLQVNRGSQSSLEGAPATAPEPHSLGILHASYSVSHRVRPWWDITSCRQQWTRQILKDVSLYVESGQIMCILGSSGSGKTTLLDAMSGRLGRAGTFLGEVYVNGRALRREQFQDCFSYVLQSDTLLSSLTVRETLHYTALLAIRRGNPGSFQKKVEAVMAELSLSHVADRLIGNYSLGGISTGERRRVSIAAQLLQDPKVMLFDEPTTGLDCMTANQIVVLLVELARRNRIVVLTIHQPRSELFQLFDKIAILSFGELIFCGTPAEMLDFFNDCGYPCPEHSNPFDFYMDLTSVDTQSKEREIETSKRVQMIESAYKKSAICHKTLKNIERMKHLKTLPMVPFKTKDSPGVFSKLGVLLRRVTRNLVRNKLAVITRLLQNLIMGLFLLFFVLRVRSNVLKGAIQDRVGLLYQFVGATPYTGMLNAVNLFPVLRAVSDQESQDGLYQKWQMMLAYALHVLPFSVVATMIFSSVCYWTLGLHPEVARFGYFSAALLAPHLIGEFLTLVLLGIVQNPNIVNSVVALLSIAGVLVGSGFLRNIQEMPIPFKIISYFTFQKYCSEILVVNEFYGLNFTCGSSNVSVTTNPMCAFTQGIQFIEKTCPGATSRFTMNFLILYSFIPALVILGIVVFKIRDHLISR
expression_or_secretion ([1]; control: WT-ABCG5): decreases

B4: ABCG8: N619Q (protein)
parent chain: MAGKAAEERGLPKGATPQDTSGLQDRLFSSESDNSLYFTYSGQPNTLEVRDLNYQVDLASQVPWFEQLAQFKMPWTSPSCQNSCELGIQNLSFKVRSGQMLAIIGSSGCGRASLLDVITGRGHGGKIKSGQIWINGQPSSPQLVRKCVAHVRQHNQLLPNLTVRETLAFIAQMRLPRTFSQAQRDKRVEDVIAELRLRQCADTRVGNMYVRGLSGGERRRVSIGVQLLWNPGILILDEPTSGLDSFTAHNLVKTLSRLAKGNRLVLISLHQPRSDIFRLFDLVLLMTSGTPIYLGAAQHMVQYFTAIGYPCPRYSNPADFYVDLTSIDRRSREQELATREKAQSLAALFLEKVRDLDDFLWKAETKDLDEDTCVESSVTPLDTNCLPSPTKMPGAVQQFTTLIRRQISNDFRDLPTLLIHGAEACLMSMTIGFLYFGHGSIQLSFMDTAALLFMIGALIPFNVILDVISKCYSERAMLYYELEDGLYTTGPYFFAKILGELPEHCAYIIIYGMPTYWLANLRPGLQPFLLHFLLVWLVVFCCRIMALAAAALLPTFHMASFFSNALYNSFYLAGGFMINLSSLWTVPAWISKVSFLRWCFEGLMKIQFSRRTYKMPLGNLTIAVSGDKILSVMELDSYPLYAIYLIVIGLSGGFMVLYYVSLRFIKQKPSQDW
expression_or_secretion ([1]; control: WT-ABCG8): decreases | degradation_or_half_life [2]: decreases, 44.40% vs. 43.95% at 2 hrs; 26.01% vs. 29.36% at 4 hrs

Source: publication PMC3939451
